According to the domain aggregation screens of Martell et al. (2025):

Assay: soluble fraction after stress (log2 fold change); higher = more stays soluble; pooled small domains, quantitative proteomics
Conditions: stress: pH 4
In short: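 Custom libraries of small protein domains were pooled and exposed to pH 4. High-throughput quantitative proteomics then measured the log2 fold change in the amount of each domain still soluble, with higher values meaning more stayed soluble. This soluble-fraction fold change stands for aggregation propensity.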

| Sequence | soluble fraction (log2) |
| --- | --- |
| HMNVDALVGQRGRVTQTFDPGLRLGRVAVGGDDWRAETTTDQPLREGDLVEVVSVESNTLIVRPIA | 0.0146 |
| HMGGVTVQNRETHVNSTVNVRSEQTTESERVALAYQGDAITQIESYENGWSKVEYKGLSGYVMTEYL | -0.819 |
| HMENVALYIRLKSMASVYDDVHGYNIEWIKSMIGLSIDIEKLRTVLEDVSWITKVEEDVYSFSKNAKPFE | -2.32 |
| HMLPIGSSREQVISSLNKMHQDYKEEGNFIYAGYFKQGLPLVPSPRISIALQFNETAHLEKIDATLNYV | -0.467 |
| HMKDLDSLSQEAKSVYAVFSDKPIHIDDIKRKTGLDFSKLFKAVTELELAELISSGEGKMYSL | -0.858 |
| HMLRMTRNRQKLVEVLMESGRPLSADEIREAAGFASTDLVTVYRNLEAFQSAGLLQRIPLENGSQLFELT | -0.269 |
| HMADYSMDDNAWNAKKADIDEWFEANPDFSANKAITDGLFSIGDSQVEMRKRYWASIAGVFAGLPNSPIG | -1.78 |
| HMESAESRVDLIGMIGEAITDLRPAGTAQFGEERIDVVSESEWITEGSTVKVVSAEGYRHVVRVME | -1.01 |
| HMAPDDTAVWSAFIGWFRTAPDGPNPLGAYAAKLGEEGLDAAEVGRRMTVIVRLFAEKPEGAEVFYDRTYA | -0.456 |
| HMVINQRKLNLLSIYSSGSEKRAIILFPTGQTKFVKVGDTLDGGRVAAIGTSEIRYLKGGNNLVLRIPG | 0.173 |
| HMNLDYKQFQVFNNIETLNTFTNLLSDNKIDFEVENNSKIFDPSFANNDFEKEYIVKIHPNDFEKVY | -1.32 |
| HMQLTVAVLIKNISKGQVISQGFLGFEARPERQIRGAYTNISEVLGRKAKSNIAVGTILKARHLDT | -0.49 |
| HMEFNQAVQDVNELSMQYAKSDVLWPEFEPKVLAFAKNELSQMPPNQWKFALQTFYNGLKQAA | -0.0767 |
| HMDANLGEIFKVYEQEIGALTPFVREEMLDAIDHYPRDWILDAIRESAKSNARNWKYTLAILKRWKAEG | -0.507 |
| HMRRSKQERQQAIKTLISNEQIQRQEDLVRKLNEAGWEVTQATISRDITEMQLVKVPLPTGGFAYAVM | -0.31 |
| HMLQKVELSDNEKFIFDSLQKEQKMALLRLKELVNLSNKAWDVSVKNLTKQGLVKVTKIDEELLIEI | -1.24 |
| HMSAQPMEYSRFYSDVTQGRVAEVEIEGREINGRLSTGERFKTFSPETDNKALIGHLLDNGVVIEGKPP | 0.0726 |
| HMPATPDATVQAVQQRLNELGYDVGSADGLMGRGTRSAIIAFQQDRGLAATGVADQALLLQLQP | -0.0545 |
| HMSDAIQLEQKIGLEAIEWYLALSEQTDDKLLYQQWQSWLAADPQHQLAWSRIEQVNHGLNTL | -0.9 |
| HMSVTYRYSYVYNGNTYSDGWSVRRAIENNENKRFGPEPSDLDHEAQKQARVTFWAEHGVEYKEQEVV | -0.423 |
| HMSVGDLPPEAREIWKLLDGRELSLDLLAEETGRETGALLSTLMMLEMKLLVEHGSDMVYRRIPRR | -1.62 |
| HMAPSVNEVAWAQKIIDAHAEAAAAGKGLVVVDGKLIENLHVEEAKQLLSLSDAIAKNDASNG | -0.31 |
| HMASALDVALNDFAEMRKKMRKPLTDRALALTLSELEKLAPGNDEKKIAILNQSIQRGWQGVFPLK | 0.0901 |
| HMERNAEDFAAKYQEIYQDMFRFALYTLKNRQEAEDVVSETVLDAWKGIEGLKNESAFSAWMFRILVNK | -0.325 |
| HMIIVMRKGATEAQVNDIVERVRAAGFGVHLSQGEERTIIGAIGGDRAVLADLNLEAAPGVERVTPIS | -0.0491 |
| HMQRSVNYSELHEIKERVFDALYSSPMSMPDLLAWLKGDEEHTISVIRLMQDNGDIEMGEDGRLAVV | -0.629 |
| HMRPNREKDMADLEKLAPFLLQMLTNYAQMTGDEKPLNAFITRFGYAAQIRDIQDFFMGPWHPA | -0.24 |
| HMGQELTPVERTALDIAARDGKVSTRILAQEAGIGLRTASKTLAALAERGLLTWHGTSRRDPQQHYTS | 0.154 |

| Sequence | soluble fraction (log2) |
| --- | --- |
| HMSVDEVEALYLKIAEDRLEGKLPDKVSESDLMRRYGLTKAQLGAILQRIVHEGWIERTPGHGWRFLPIL | -0.368 |
| HMRKIEDVLRLHAQGMSTRRIALATGVGKTTVIEYLRRAAVAGLSWPLPEGLDEEALERRVFPPPP | 0.282 |
| HMRDPLNTGFRQTLKDIVNSLPKNELYSPGVREEYIYPKIGVTSLGMEASMVLNGLISSRRKNIELKEKN | 0.179 |
| HMNNWYESSIKSLVEEYFREHGFSVVFDSSEFWDVFIEKYHKQIPSSQIALFDQVAAEARSYAFNKK | -0.545 |
| HMKSVTVIFKESGNVVSSKKLSVVATAQYVDKSRITAPAGYRIATTDSKLKISENNTVTVEVK | -0.1 |
| HMLELTVSDKMARLMAWRNRRRVNLSDQELHRIAAAPKQSPESILKMLPGFLQDSVPEIWAELTGGRP | -0.0678 |
| HMTQLPEVPVERGMVLEEVQSGWVGAVTRVEKSGGMHVVALEDRRGKSRSFRLGFGFLLEGQPIRLMPPAP | -0.882 |
| HMSVLPAREQVAAILRQAILLRKFKEGQDLTLKDAAELVGSSITPVREAFQILENEGLIELRPNKGAVVL | -0.616 |
| HMFFAGLSPEAARTLDSLPLHSWSSVEQIARQAGLNIETVRKELGLLELSGIALSRQGRFRRA | 0.0761 |
| HMEVKRANRKERFLEALPYQFSRQDYLNIADKNKIPHKTAEGYITKFVDAGLIHREAHNNYTNPTKA | 0.045 |
| HMDTITDSYTLEKGKLRAKVMEYELPESKKKEYSATFEYRGVYYHMIGIIEKADFEEILKNLHFP | -0.53 |
| HMAVFSKKQIFDTAFALFESKGLEAITARNLGKALSSSPAPIYAHYSSITELKNELISVAKDR | -0.692 |
| HMGIRAFDPEAFDERLKEFFSMIAPYKKLDTRSLQPHFPHHAKEVAERIRQLAEAGKIKVDGFYISEL | -0.0943 |
| HMSLTEDELFHALTIYANREGINIGATELKYLLTHYARNLGKLIELINQVSQAATMQKKPITIPLIKHS | -0.251 |
| HMKSYTYNPNYLSDYNAYRLGIPLEALERLQLHRSTGRYVNSLSDFQSVTGISDSLKHSLSSSLRFPN | -0.564 |
| HMSKPILSFVDPEKDPSHYVKRYITEETYKDWFSEHFPDYTLYEGIGITQEEYRNIVNELTKP | -1.7 |
| HMSVFMIIVLKQHAPQEFVDMLMSSIKAKGVQIDVSKGARKTILGLVGNTSVIDREQIAGYEYVDKVIRV | -0.289 |
| HMVLVEEYDTKDSASTFKIGYYARYNTKYGTPSKVGSYADNQRSGIWTFYTDSLKTYFKYNYSTGLIL | -0.572 |
| HMLGERIRTLRKEIGMSVTELARRVKTSPSHISEIERGEKMPSLNLLVKIAKELKTSIDYLTGLVG | -0.487 |
| HMQKITPDNWTYIRSLIRQKWSPDQIDQWLKKHPDVGFTVSRETIYQYVKEDRQKDGDLYLSLRRAGKSY | -1.11 |
| HMESIEAGTFELDNKTSIDISEDEANLLNKMFEELTETNSKDMYGVMVADEAGFNEILEFAKENL | -0.551 |
| HMAPRASDALTERELDVLRVVADGASVAEAAEMLVVSRETVKKHLGNIYAKLGVHSKMQAVALLREEGV | -1.27 |
| HMYVQDPVDRLVLESALRLLREQEREIIFLHLVAGLKHREIAGLLHLPLSTVLSGYRRALTKMKSYLEE | 0.0239 |
| HMARHIHFEVHVQQAGRWSIHAQFGAGQREKAIEEAKKIEKTPGFDSVKVVKETYDSDLGNHQDTTIYRGP | 0.0508 |
| HMVLVKFEWTPPDARILVDDHPVEARDKEMELPEGTHHVQALAPRGSGYESTVTDIEVRQGMDPVRIAL | 0.115 |
| HMIVDARNREINLGSHVRYVDTGTVGEVTDSKVENDASWVKIDKTNLWYLANKLELLNDEDFKT | -0.517 |
| HMDPTHDMHFLVKDQVTGQPLPNMPYRLQLDNGQTLTGRTDALGMTEKISGHSPHIASIEVPY | 0.025 |
